Laboratory results taken from patent publication US20240350615A1 (BEIJING WANTAI BIOLOGICAL PHARMACY ENTERPRISE, published 2024).

Molecular target: T1, polypeptide 2C01 (human rhinovirus (W10 (HRV-C15)))
T1 construct: synthetic peptide coated on the ELISA plate; also called 2C (aa 151-163)
T1 peptide: YSLPPDPKYFDGY
Assay: indirect ELISA, peptide coated 1 ug/well, 9A5 at 2 ug/mL

B1: monoclonal antibody 9A5 (antibody, V domains shown)
VH: EVQLVESGGDLVKPGGSLKLSCAASGFTFSIYGMSWVRQTPDKRLEWVATISSAGIYTYYPDSVKGRFTISRDNAKNTLYLQMSSLKSEDTAMYYCARHGYGLFDVWGAGTTVTVSS
VL: not shown
notes: also called anti-C149-2C01 mouse monoclonal antibody
Does B1 bind?
Result: binds
